Each block holds one binder with its values, some of them ahead of it.
B2: GST-TACC3-CT E629A (domain or fragment)
chain: not shown

What was measured:
[1] = molecular target: T1, His-ARNT PAS-B (human ARNT residues 356-470) (human, UniProt P27540 356-470); test: pull-down
[2] = molecular target: His-ARNT2 PAS-B (human ARNT2 residues 330-444) (human, UniProt Q9HBZ2 330-444); test: pull-down
ARNT2 PAS-B E372A = ARNT2 PAS-B E372A (human, UniProt Q9HBZ2 330-444, E372A); test: pull-down
ARNT2 PAS-B K391A = ARNT2 PAS-B K391A (human, UniProt Q9HBZ2 330-444, K391A); test: pull-down
[3] = molecular target: T1, His-ARNT PAS-B (human ARNT residues …); test: AlphaScreen or HTRF
GST-TACC3-CT E629A = molecular target: B2; test: AlphaScreen or HTRF

binding result [1]: binds | binding result [2]: binds | binding result (ARNT2 PAS-B E372A): binds | binding result (ARNT2 PAS-B K391A): binds
B1: GST-TACC3-CT (murine TACC3 residues 561-631) (domain or fragment)
chain: not shown

Binder: B2
binding result [3]: binds

IC50 (GST-TACC3-CT E629A): 2 to 3 µM
B3: untagged ARNT PAS-B (domain or fragment)
chain: not shown

Source: paper PMC3600089 (ACS chemical biology, 2012)
